{"source": "IntAct's records for PubMed 19264842", "target": "T1, plcg1_human PLCG1 (UniProt P19174)", "T1 sequence": "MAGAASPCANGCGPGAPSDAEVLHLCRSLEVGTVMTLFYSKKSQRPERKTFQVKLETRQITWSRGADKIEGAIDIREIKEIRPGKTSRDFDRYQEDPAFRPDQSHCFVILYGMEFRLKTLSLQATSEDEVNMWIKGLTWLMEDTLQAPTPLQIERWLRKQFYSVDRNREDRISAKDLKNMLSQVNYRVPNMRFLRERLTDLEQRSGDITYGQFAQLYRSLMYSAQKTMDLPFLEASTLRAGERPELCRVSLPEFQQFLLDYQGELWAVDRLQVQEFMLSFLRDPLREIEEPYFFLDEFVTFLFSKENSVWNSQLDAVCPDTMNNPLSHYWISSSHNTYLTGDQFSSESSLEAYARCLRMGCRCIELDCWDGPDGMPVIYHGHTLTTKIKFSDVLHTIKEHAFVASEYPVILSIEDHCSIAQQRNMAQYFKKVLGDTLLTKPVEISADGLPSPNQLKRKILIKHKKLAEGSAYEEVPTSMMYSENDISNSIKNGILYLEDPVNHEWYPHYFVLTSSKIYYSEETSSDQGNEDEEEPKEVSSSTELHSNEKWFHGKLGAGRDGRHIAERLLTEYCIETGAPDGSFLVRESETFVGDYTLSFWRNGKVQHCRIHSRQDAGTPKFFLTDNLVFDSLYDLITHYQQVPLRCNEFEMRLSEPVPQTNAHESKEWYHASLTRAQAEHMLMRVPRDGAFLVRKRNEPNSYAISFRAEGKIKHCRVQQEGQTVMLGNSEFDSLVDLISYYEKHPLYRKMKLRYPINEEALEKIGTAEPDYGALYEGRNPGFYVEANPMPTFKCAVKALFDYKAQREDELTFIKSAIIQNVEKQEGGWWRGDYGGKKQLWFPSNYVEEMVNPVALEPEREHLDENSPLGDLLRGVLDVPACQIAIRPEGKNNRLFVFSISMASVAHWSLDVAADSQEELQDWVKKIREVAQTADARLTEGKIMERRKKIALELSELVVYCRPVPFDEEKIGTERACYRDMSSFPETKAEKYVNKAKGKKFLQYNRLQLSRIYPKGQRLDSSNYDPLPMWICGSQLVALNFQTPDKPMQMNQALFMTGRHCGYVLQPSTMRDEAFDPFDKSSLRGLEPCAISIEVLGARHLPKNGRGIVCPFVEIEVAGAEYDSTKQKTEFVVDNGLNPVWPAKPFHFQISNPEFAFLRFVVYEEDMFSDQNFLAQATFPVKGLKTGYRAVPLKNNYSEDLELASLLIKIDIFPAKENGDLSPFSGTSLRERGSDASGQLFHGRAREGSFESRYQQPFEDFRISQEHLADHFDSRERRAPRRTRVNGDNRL", "data": [{"substance": "Ras-related C3 botulinum toxin substrate 1 (Homo sapiens) (from UniProt P63000) P106A", "values": [{"measurement": "effect of a mutation on the interaction", "value": "disrupting interaction"}]}, {"substance": "Ras-related C3 botulinum toxin substrate 1 (Homo sapiens) (from UniProt P63000) P109A", "values": [{"measurement": "effect of a mutation on the interaction", "value": "disrupting interaction"}]}]}
